Assay results published in paper PMC8703291, “Non-Cationic RGD-Containing Protein Nanocarrier for Tumor-Targeted siRNA Delivery” (Pharmaceutics, 2021).

Molecular target: the molecule itself
Assay: non-reducing SDS-PAGE; purified dual-RGD under non-reducing conditions, Coomassie blue staining

B1: dual-RGD-dsRBD-18his (dual-RGD) recombinant protein (designed binder)
chain: CDCRGDCFCAGDLSAGFFMEELNTYRQKQGVVLKYQELPNSGPPHDRRFTFQVIIDGREFPEGEGRSKKEAKNAAAKLAVEILNKEKKAVSPLLLTTTNSSEGLSMGNYIGLINRIAQKKRLTVNYEQCASGVHGPEGFHYKCKMGQKEYSIGTGSTKQEAKQLAAKLAYLQILSEETSVGRGDS
notes: cyclic RGD peptide RGD-4C appended to the N-terminal of dsRBD-18His; linear GRGDS (Gly-Arg-Gly-Asp-Ser) peptide added to the C-terminal of dsRBD-18His; MW ~26 kDa (monomer); also called dual-RGD carrier; source: E. coli BL21 (DE3), purified (nickel resin), dialysed against PBS with 10% glycerol and 0.1% β-ME
For B1, the “stoichiometry N” value was 2.
